Source: US20230242662A1 (BIOATLA, published 2023)
Where a chain is given by its changes, count along the chain named.

B1: Benchmark (BM) BA-133-00-01 (antibody, V domains shown)
VH: QVQLQESGPGLVKPSETLSLTCTVSGGSVSSYDISWIRQPPGKGLEWIGVIWTDGGTNYNSAFMSRVTISVDTSKNQFSLKLSSVTAADTAVYYCARVYDGYPWFAYWGQGTLVTVSS
VL: DIQMTQSPSSLSASVGDRVTITCRASQGISNYLNWYQQKPGKAPKLLIYYTSSLHSGVPSRFSGSGSGTDFTLTISSLQPEDFATYYCQQYIKLPWTFGGGTKLEIKR
notes: the killing assays used the ADC form; Conjugation site and payload are not described; also called BM (bench mark)
B2: BAP133-2-03-03-SL (antibody, V domains shown)
VH: EVQLVESGGGLVQPGGSLRLSCAASGGSVSSYDISWIRQSPSRGLEWLGVIWTDGGTNYNSAFMSRFTISRDDSKNTAYLQMNSLKTEDTAVYYCERVYDGYPWFAYWGQGTLVTVSS
VL: AIQLTQSPSSLSASVGDRVTITCRASQGISNYLNWYLQKPGQSPQLLIYYTSSLHSGVPDRFSGSGSGTDFTLKISRVEAEDVGVYYCQQYIKLPWTFGQGTKVEIK
notes: the killing assays used the ADC form; also called BAP133-02-03-03-SL; CPE hit BAP133-2-03-03-SL
B3: BA-133-04-01 (antibody, V domains shown)
VH: B2 VH
VL: B2 VL with G28W
notes: also called CPE hit BA133-04-01
B4: BA-133-04-02 (antibody, V domains shown)
VH: B2 VH
VL: B2 VL with S30A
notes: also called CPE hit BA133-04-02
B5: BA-133-04-03 (antibody, V domains shown)
VH: B2 VH
VL: B2 VL with H55F
notes: also called CPE hit BA133-04-03
B6: BA-133-04-04 (antibody, V domains shown)
VH: B2 VH
VL: B2 VL with S56E
notes: the killing assays used the ADC form; also called CPE hit BA133-04-04

biological target: T1, recombinant cyno CD46 antigen (cynomolgus, UniProt A0A2K5WCL8 35-328); assay: ELISA, coated cyno CD46; EC50 at pH 7.4 over EC50 at pH 6.0
T1 construct: extracellular domain; Plate-coated antigen of the ELISA; also called cynomolgus CD46 extracellular domain
T1 sequence: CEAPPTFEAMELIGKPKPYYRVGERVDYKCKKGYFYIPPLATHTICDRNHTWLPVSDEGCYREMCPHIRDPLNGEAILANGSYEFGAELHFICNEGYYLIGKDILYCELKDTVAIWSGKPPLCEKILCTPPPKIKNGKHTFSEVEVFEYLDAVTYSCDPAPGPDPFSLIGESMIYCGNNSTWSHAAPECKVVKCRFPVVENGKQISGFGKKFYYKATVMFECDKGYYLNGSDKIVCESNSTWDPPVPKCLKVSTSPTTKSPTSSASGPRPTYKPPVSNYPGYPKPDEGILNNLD
Protocol: The binding activities of conditionally active anti-CD46 antibodies to cyno CD46 were measured by ELISA and are shown in FIGS. 3-4. The EC50 values for binding to the cyno CD46 at pH 6.0 and pH 7.4 for the conditionally active anti-CD46 antibodies are summarized in Table 2.
[…] Cover with sealing film and place the plate onto a plate shaker set to 50 rpm for 60 minutes at room temperature. [0351] 6) Decant plates and tap out residual liquid on a stack of paper towels. [0352] 7) Serially dilute test articles in 3-fold dilutions starting at 3000 ng/mL in pH 6.0 or pH 7.4 ELISA incubation buffer. [0353] 8) Add 100 μL/well of diluted test articles to the plates [0354] 9) Cover with sealing film and place the plates onto a plate shaker set to 50 rpm for 60 minutes at room temperature. […] 10) Decant plates and tap out residual liquid on a stack of paper towels. [0356] 11) Wash wells three times by dispensing 200 μL of pH 6.0 or pH 7.4 ELISA wash buffer to the wells and completely aspirate the contents. [0357] 12) Dilute the HRP secondary antibody at 1:2500 in pH 6.0 or pH 7.4 ELISA incubation buffer. [0358] 13) Add 100 μL HRP secondary antibody diluted in pH 6.0 or pH 7.4 ELISA incubation buffer to each well [0359] 14) Cover with sealing film and place the plates onto a plate shaker set to 50 rpm for 60 minutes at room temperature. [0360] 15) Decant plates and tap out residual liquid on a stack of paper towels. [0361] 16) Wash wells three times by dispensing 200 μL of pH 6.0 or pH 7.4 ELISA wash buffer to the wells and completely aspirate the contents. [0362] 17) Dispense 50 μL per well of the TMB substrate solution into all wells of the plates. Incubate at room temperature for about 2 minutes 15 seconds or 2 minutes. […] 18) Add 50 μL per well of 1N HCl into all wells of the plates. Read plates at 450 nm using PerkinElmer, EnSpire 2300 Multilabel Reader.

| Binder | ratio (ph 7.4/pH 6.0) |
| --- | --- |
| B1 | 1.33 |
| B2 | 11 |
| B3 | 9.2 |
| B4 | 9 |
| B5 | 7.14 |
| B6 | 13 |

biological target: T2, cyno CD46 expressed on 293 cells (cynomolgus); assay: FACS, 293 cells expressing cyno CD46, pH 6.0
T2 construct: whole, on cells; The construct on the cells is not described; also called HEK 293 cells expressing cyno CD46
Protocol: (§1) A similar FACS analysis was also carried out using 293 cells expressing cyno CD46. […] The EC50 values for binding to the 293 cells expressing cyno CD46 by the conditionally active anti-CD46 antibodies are summarized in Table 6.

| Binder | EC50 [µg/mL] |
| --- | --- |
| B1 | 0.0336 |
| B2 | 0.104 |
| B3 | 0.114 |
| B4 | 0.132 |
| B5 | 0.0411 |
| B6 | 0.0947 |

biological target: T3, cynoCD46-His (cynomolgus, UniProt A0A2K5WCL8 35-328); assay: SPR, cynoCD46-His immobilised, antibody as analyte, pH 6.0
T3 construct: extracellular domain; Immobilised by amine coupling on the SPR chip; not shown: His tag
T3 sequence: T1 sequence
Protocol: (§2) Binding kinetics of anti-CD46 antibodies were measured by surface plasmon resonance on a SPR2/4 instrument (Sierra Sensors, Hamburg, Germany) and flat amine sensor chips. The SPR sensor contained four flow cells (FC1-FC4), each of which can be addressed individually or in groups. huCD46-His was immobilized in FC2, and cynoCD46-His was immobilized in FC4. No protein was immobilized in FC1 and FC3 which were used as control surfaces for FC2 and FC4, respectively.
(§3) All injections were done at a flow rate of 25 μL/min and 25° C. The sensor surface was activated with 1-ethyl-3-(3-dimethylaminopropyl)-carbodiimide (EDC) and N-hydroxysuccinimide (NHS) (200 mM/50 mM) for 480 seconds. Human CD46-His (2 μg/mL in 10 mM NaAc, pH5.0) was injected for 480s and the surface was inactivated by injecting 1M ethanolamine-HCl for 480s. cynoCD46-His was immobilized using the same conditions as described for huCD46-His, except that it was diluted into 10 mM NaAc buffer pH4.5. The control surface was activated and deactivated using the same conditions, but without injecting protein. PBST buffer (PBS pH7.4 with 0.05% TWEEN20™) was used as running buffer for the surface preparation. The running solution was switched to PBST with 30 mM sodium bicarbonate with the pH adjusted as indicated in the figures before the analyte injections. The instrument was equilibrated with the running solution for one hour before the first analyte injection.
(§4) The off-rate was measured for 360 s. The chip surface was regenerated after each cycle of interaction by injecting 6 μL of 10 mM glycine (pH 2.0). Flow cells 1 and 3 without immobilized protein were used as control surfaces for reference subtraction.

| Binder | Kd [nM] | koff [s⁻¹] | kon [M⁻¹ s⁻¹] |
| --- | --- | --- | --- |
| B1 | 0.795 | 0.00115 | 1.45e+06 |
| B2 | 2.55 | 0.00255 | 1e+06 |
| B3 | 0.465 | 0.000757 | 1.63e+06 |
| B4 | 0.519 | 0.000835 | 1.61e+06 |
| B5 | 0.514 | 0.00143 | 2.79e+06 |
| B6 | 1.02 | 0.00146 | 1.42e+06 |

biological target: T2, cyno CD46 expressed on 293 cells; assay: FACS, 293 cells expressing cyno CD46; EC50 at pH 7.4 over EC50 at pH 6.0
Protocol: as §1

| Binder | Ratio (pH 7.4/6.0) |
| --- | --- |
| B1 | 1.5 |
| B2 | 11 |
| B3 | 8.4 |
| B4 | 10.4 |
| B5 | 8 |
| B6 | 10 |

biological target: T3, cynoCD46-His; assay: SPR, cynoCD46-His immobilised, antibody as analyte, pH 7.4
Protocol: as §2, §3, §4

| Binder | Kd [nM] | koff [s⁻¹] | kon [M⁻¹ s⁻¹] |
| --- | --- | --- | --- |
| B1 | 0.905 | 0.0011 | 1.21e+06 |
| B2 | 5.47 | 0.00242 | 442000 |
| B3 | 1.29 | 0.000893 | 690000 |
| B4 | 1.06 | 0.000904 | 852000 |
| B5 | 1.26 | 0.00153 | 1.21e+06 |
| B6 | 2.28 | 0.00154 | 673000 |

biological target: T2, cyno CD46 expressed on 293 cells; assay: FACS, 293 cells expressing cyno CD46, pH 7.4
Protocol: as §1

| Binder | EC50 [µg/mL] |
| --- | --- |
| B1 | 0.0493 |
| B2 | 1.15 |
| B3 | 0.958 |
| B4 | 1.37 |
| B5 | 0.33 |
| B6 | 0.944 |

biological target: T3, cynoCD46-His; assay: SPR, cynoCD46-His immobilised, antibody as analyte, pH 6.5
Protocol: as §2, §3, §4

| Binder | Kd [nM] | koff [s⁻¹] | kon [M⁻¹ s⁻¹] |
| --- | --- | --- | --- |
| B1 | 0.778 | 0.00117 | 1.51e+06 |
| B2 | 2.33 | 0.00198 | 849000 |
| B3 | 0.558 | 0.000662 | 1.19e+06 |
| B4 | 0.683 | 0.000943 | 1.38e+06 |
| B5 | 0.624 | 0.00142 | 2.28e+06 |
| B6 | 1.09 | 0.00145 | 1.33e+06 |

biological target: T4, huCD46-His (human, UniProt P15529 35-343); assay: SPR, huCD46-His immobilised, antibody as analyte, pH 7.4
T4 construct: extracellular domain; Immobilised by amine coupling on the SPR chip; It may be the same protein as the ELISA antigen; also called Human CD46-His; human CD46; not shown: His tag
T4 sequence (looked up): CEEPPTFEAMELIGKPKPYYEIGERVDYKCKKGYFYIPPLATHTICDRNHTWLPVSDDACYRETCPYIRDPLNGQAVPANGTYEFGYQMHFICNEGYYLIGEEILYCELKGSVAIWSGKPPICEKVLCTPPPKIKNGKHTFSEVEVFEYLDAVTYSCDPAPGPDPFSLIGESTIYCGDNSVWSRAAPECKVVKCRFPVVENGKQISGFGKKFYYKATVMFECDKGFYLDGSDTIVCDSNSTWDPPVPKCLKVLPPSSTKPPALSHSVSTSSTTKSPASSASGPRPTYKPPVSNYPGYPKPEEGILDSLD
Protocol: as §2, §3, §4

| Binder | Kd [nM] | koff [s⁻¹] | kon [M⁻¹ s⁻¹] |
| --- | --- | --- | --- |
| B1 | 2.13 | 0.00119 | 555000 |
| B2 | 0.89 | 0.000778 | 874000 |
| B3 | 3.99 | 0.00154 | 385000 |
| B4 | 4.17 | 0.00174 | 417000 |
| B5 | 4.8 | 0.00249 | 519000 |
| B6 | 4.93 | 0.00241 | 490000 |

biological target: T4, huCD46-His; assay: SPR, huCD46-His immobilised, antibody as analyte, pH 6.5
Protocol: as §2, §3, §4

| Binder | Kd [nM] | koff [s⁻¹] | kon [M⁻¹ s⁻¹] |
| --- | --- | --- | --- |
| B1 | 2.15 | 0.00133 | 621000 |
| B2 | 1.29 | 0.000736 | 571000 |
| B3 | 1.77 | 0.00123 | 696000 |
| B4 | 2.31 | 0.00127 | 547000 |
| B5 | 2.07 | 0.00195 | 941000 |
| B6 | 1.91 | 0.00176 | 922000 |

biological target: T4, huCD46-His; assay: SPR, huCD46-His immobilised, antibody as analyte, pH 6.0
Protocol: as §2, §3, §4

| Binder | Kd [nM] | koff [s⁻¹] | kon [M⁻¹ s⁻¹] |
| --- | --- | --- | --- |
| B1 | 2.32 | 0.00158 | 682000 |
| B2 | 2.36 | 0.000915 | 388000 |
| B3 | 0.991 | 0.00113 | 1.14e+06 |
| B4 | 2.33 | 0.00143 | 611000 |
| B5 | 1.52 | 0.00179 | 1.18e+06 |
| B6 | 2.51 | 0.00207 | 824000 |
